Assay results taken from patent US20040147443A1.

What was measured:
[1] = target: type-L calcium channels, verapamil site (rat cerebral cortex homogenates) (rat); assay: inhibition of specific binding of (3H)(-)D 888 by 10% Argireline; rat cerebral cortex membranes
[2] = target: type-L calcium channels, verapamil site (rat cerebral cortex homogenates) (rat); assay: specific binding of 0.5 nM (3H)(-)D 888 left with 1.0% Argireline; rat cerebral cortex membranes, scintillation counting; replicate 2
[3] = target: type-L calcium channels, verapamil site (rat cerebral cortex homogenates) (rat); assay: specific binding of 0.5 nM (3H)(-)D 888 left with the MIXTURE of 1.0% Argireline and 1 x 10^-4 M magnesium gluconate; rat cerebral cortex membranes; replicate 2
[4] = target: type-L calcium channels, verapamil site (rat cerebral cortex homogenates) (rat); assay: specific binding of 0.5 nM (3H)(-)D 888 left with the MIXTURE of 1.0% Argireline and 1 x 10^-4 M magnesium gluconate; rat cerebral cortex membranes; replicate 3
[5] = target: type-L calcium channels, verapamil site (rat cerebral cortex homogenates) (rat); assay: specific binding of 0.5 nM (3H)(-)D 888 left with the MIXTURE of 1.0% Argireline and 1 x 10^-4 M magnesium gluconate; rat cerebral cortex membranes; replicate 1
[6] = target: type-L calcium channels, verapamil site (rat cerebral cortex homogenates) (rat); assay: inhibition of specific binding of 0.5 nM (3H)(-)D 888 by the MIXTURE of 1.0% Argireline and 1 x 10^-4 M magnesium gluconate; rat cerebral cortex membranes
[7] = target: type-L calcium channels, verapamil site (rat cerebral cortex homogenates) (rat); assay: inhibition of specific binding of (3H)(-)D 888 by 5% Argireline; rat cerebral cortex membranes
[8] = target: type-L calcium channels, verapamil site (rat cerebral cortex homogenates) (rat); assay: specific binding of 0.5 nM (3H)(-)D 888 left with 1.0% Argireline; rat cerebral cortex membranes, scintillation counting; replicate 3
[9] = target: type-L calcium channels, verapamil site (rat cerebral cortex homogenates) (rat); assay: inhibition of specific binding of 0.5 nM (3H)(-)D 888 by 1.0% Argireline; rat cerebral cortex membranes, scintillation counting
[10] = target: type-L calcium channels, verapamil site (rat cerebral cortex homogenates) (rat); assay: specific binding of 0.5 nM (3H)(-)D 888 left with 1.0% Argireline; rat cerebral cortex membranes, scintillation counting
[11] = target: type-L calcium channels, verapamil site (rat cerebral cortex homogenates) (rat); assay: specific binding of 0.5 nM (3H)(-)D 888 left with 1.0% Argireline; rat cerebral cortex membranes, scintillation counting; replicate 1
[12] = target: type-L calcium channels, verapamil site (rat cerebral cortex homogenates) (rat); assay: specific binding of 0.5 nM (3H)(-)D 888 left with the MIXTURE of 1.0% Argireline and 1 x 10^-4 M magnesium gluconate; rat cerebral cortex membranes

mean percentage of inhibition [1]: 52% | % of binding [2]: 93.1% | % of binding [3]: 85.3% | % of binding [4]: 85.1% | % of binding [5]: 81.6% | Mean % of inhibition [6]: 16% | mean percentage of inhibition [7]: 36% | % of binding [8]: 99.9% | Mean % of inhibition [9]: 4% | Mean % of binding [10]: 96.1% | % of binding [11]: 95.1% | Mean % of binding [12]: 84%
Binder: Ac-EEMQRR-NH2
